The target of this data set is EF-Tu (GTP form) (Escherichia coli K12 MG1655, UniProt P0CE47 1-394). Nature of the data set: EMSA; GTP; L-Gln-tRNA; Native PAGE EMSA; EF-Tu preincubated with GTP, phosphoenol pyruvate and pyruvate kinase, 20 µl reactions, 3'-32P aminoacyl-tRNA; buffer, salt, pH and temperature not in the material. The following applies: protein: recombinant; tags: StrepTag or TwinStrep-Tag; label: 3' 32P; tRNA cloverleaf.
Chain of EF-Tu (GTP form) (P0CE47 whole entry): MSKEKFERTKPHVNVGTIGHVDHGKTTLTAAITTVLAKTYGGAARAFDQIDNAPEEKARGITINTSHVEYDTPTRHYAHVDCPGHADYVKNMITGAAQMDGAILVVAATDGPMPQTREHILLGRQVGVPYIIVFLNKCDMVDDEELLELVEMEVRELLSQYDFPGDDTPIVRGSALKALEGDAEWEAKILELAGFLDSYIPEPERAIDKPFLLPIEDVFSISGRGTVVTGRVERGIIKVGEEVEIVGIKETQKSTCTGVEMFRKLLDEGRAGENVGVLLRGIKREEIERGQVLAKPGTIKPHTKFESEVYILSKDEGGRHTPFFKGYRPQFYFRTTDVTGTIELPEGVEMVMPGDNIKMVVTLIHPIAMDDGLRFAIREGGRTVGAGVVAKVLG

B1: tRNAGly tp (structured_RNA)
RNA: GCGGGCGUAGUUCAAUGGUAGAACGAGAGCUUCCCAAGCUCUAUACGAAGGUUCGAUUCCUUCCGCCCGCUCCA
modifications: 3'-aminoacyl as per row
With B1, the binding result is given as “binds”.
